Experimental findings from PMC8722602 (bioRxiv, 2021) are described below.

The target of this assay is SARS-CoV-2 RBD-his tag protein (SARS-CoV-2, ancestral (Wuhan-Hu-1/WA1), UniProt P0DTC2). The experiment in a line: ELISA. (An ELISA detects its analyte on a solid surface through an enzyme-linked reagent.)

B1: Clone 2 (recombinant mAb, mouse variable regions on human IgG1) (antibody, V domains shown)
VH: EVQLQQSGPELVKPGASVKISCKASGYSFTGYSMNWMKQSPEKSLEWIGEINPSTGGTTDNQKFKAKATLTVDKSSSTAYMQLKSLTSEDSAVYYCARSRGDYWGQGTSVTVSS
VL: DIVLTQSPASLAVSLGQRATISCRASESVEYYGTSLMQWYQQKPGQPPKVLIYAASNVESGVPARFSGSGSGTDFSLNIHPVEEDDIAMYFCQQSRKVPWTFGGGTKLEIK
Consider B1, for which the binding result is “binds”.

B2: Clone 6 (recombinant mAb, mouse variable regions on human IgG1) (antibody, V domains shown)
VH: QVQLQQSAAELARPGASVKMSCKASGYTFTSYTMHWVKQRPGQGLEWIGYINPTSGYTEYNQNFKDKTTLTADKSSSTAYMQLNSLTSEDSAVYYCAREGHRVGPAYWGQGTLVTVSA
VL: not shown
On to B2, for which the binding result was “binds”.
